Experimental data reported in IntAct's records for PubMed 29997244.

B1: DnaJ homolog subfamily C member 5 (Homo sapiens), Q9H3Z4 (parent)
chain: MADQRQRSLSTSGESLYHVLGLDKNATSDDIKKSYRKLALKYHPDKNPDNPEAADKFKEINNAHAILTDATKRNIYDKYGSLGLYVAEQFGEENVNTYFVLSSWWAKALFVFCGLLTCCYCCCCLCCCFNCCCGKCKPKAPEGEETEFYVSPEDLEAQLQSDEREATDTPIVIQPASATETTQLTADSHPSYHTDGFN
partner: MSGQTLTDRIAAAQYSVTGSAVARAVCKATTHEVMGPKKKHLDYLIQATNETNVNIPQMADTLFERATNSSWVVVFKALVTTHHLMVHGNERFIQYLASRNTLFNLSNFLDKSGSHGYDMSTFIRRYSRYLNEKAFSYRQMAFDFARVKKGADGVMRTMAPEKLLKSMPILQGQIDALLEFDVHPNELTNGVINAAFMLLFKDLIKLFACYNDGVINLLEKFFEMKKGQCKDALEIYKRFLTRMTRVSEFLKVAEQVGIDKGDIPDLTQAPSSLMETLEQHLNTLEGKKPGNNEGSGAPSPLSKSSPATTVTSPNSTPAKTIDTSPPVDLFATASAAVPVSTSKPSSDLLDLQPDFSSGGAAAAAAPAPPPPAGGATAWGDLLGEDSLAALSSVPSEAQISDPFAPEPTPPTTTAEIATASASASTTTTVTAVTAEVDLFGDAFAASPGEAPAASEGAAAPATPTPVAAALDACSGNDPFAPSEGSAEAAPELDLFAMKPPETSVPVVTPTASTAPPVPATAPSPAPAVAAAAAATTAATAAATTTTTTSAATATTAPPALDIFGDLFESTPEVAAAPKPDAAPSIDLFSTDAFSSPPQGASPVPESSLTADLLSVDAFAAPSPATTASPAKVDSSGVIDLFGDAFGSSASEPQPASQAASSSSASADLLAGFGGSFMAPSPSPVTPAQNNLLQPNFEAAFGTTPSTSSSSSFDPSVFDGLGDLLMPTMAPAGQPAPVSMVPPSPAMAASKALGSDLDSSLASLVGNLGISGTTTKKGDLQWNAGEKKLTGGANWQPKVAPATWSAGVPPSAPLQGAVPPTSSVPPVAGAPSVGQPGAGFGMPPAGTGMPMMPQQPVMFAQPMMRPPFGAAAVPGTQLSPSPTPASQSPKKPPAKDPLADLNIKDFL
B2: DnaJ homolog subfamily C member 5 (Homo sapiens), Q9H3Z4 (parent)
chain: B1 chain

Variants of: B1
Settings: with ap180_human SNAP91, O60641

Row | Variant | effect of a mutation on the interaction
1 | MADQRQRSLSTSGESLYHVLGLDKNATSDDIKKSYRKLALKYHPDKNPDNPEAADKFKEINNAHAILTDATKRNIYDKYGSLGLYVAEQFGEENVNTYFVLSSWWAKALFVFCGRLTCCYCCCCLCCCFNCCCGKCKPKAPEGEETEFYVSPEDLEAQLQSDEREATDTPIVIQPASATETTQLTADSHPSYHTDGFN [L115R] | with no effect

Variants of: B2
Settings: with zdh17_human ZDHHC17, Q8IUH5
Chain of zdh17_human ZDHHC17, Q8IUH5 (Q8IUH5 whole entry): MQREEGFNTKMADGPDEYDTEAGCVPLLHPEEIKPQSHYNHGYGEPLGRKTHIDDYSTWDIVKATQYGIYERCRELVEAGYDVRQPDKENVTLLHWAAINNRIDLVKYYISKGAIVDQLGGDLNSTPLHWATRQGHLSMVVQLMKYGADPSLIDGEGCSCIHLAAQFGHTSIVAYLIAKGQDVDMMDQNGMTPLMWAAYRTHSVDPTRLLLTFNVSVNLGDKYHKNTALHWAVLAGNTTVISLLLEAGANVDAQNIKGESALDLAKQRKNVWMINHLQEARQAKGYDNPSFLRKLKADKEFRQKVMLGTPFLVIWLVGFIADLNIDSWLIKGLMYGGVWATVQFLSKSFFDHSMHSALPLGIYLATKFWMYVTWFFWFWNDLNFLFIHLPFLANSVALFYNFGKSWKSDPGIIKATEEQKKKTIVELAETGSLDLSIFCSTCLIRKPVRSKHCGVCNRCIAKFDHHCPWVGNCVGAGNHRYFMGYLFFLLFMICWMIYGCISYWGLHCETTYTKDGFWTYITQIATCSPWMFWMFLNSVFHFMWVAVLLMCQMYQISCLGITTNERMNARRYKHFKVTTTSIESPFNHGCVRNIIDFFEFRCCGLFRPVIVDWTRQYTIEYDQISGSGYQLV

Row | Variant | effect of a mutation on the interaction
2 | MADQRQRSLSTSGESLYHVLGLDKNATSDDIKKSYRKLALKYHPDKNPDNPEAADKFKEINNAHAILTDATKRNIYDKYGSLGLYVAEQFGEENVNTYFVLSSWWAKALFVFCGRLTCCYCCCCLCCCFNCCCGKCKPKAPEGEETEFYVSPEDLEAQLQSDEREATDTPIVIQPASATETTQLTADSHPSYHTDGFN [L115R] | increasing interaction strength

Variants of: B2
Settings: with ap2b1_human AP2B1, P63010

Row | Variant | effect of a mutation on the interaction
3 | MADQRQRSLSTSGESLYHVLGLDKNATSDDIKKSYRKLALKYHPDKNPDNPEAADKFKEINNAHAILTDATKRNIYDKYGSLGLYVAEQFGEENVNTYFVLSSWWAKALFVFCGRLTCCYCCCCLCCCFNCCCGKCKPKAPEGEETEFYVSPEDLEAQLQSDEREATDTPIVIQPASATETTQLTADSHPSYHTDGFN [L115R] | with no effect

Variants of: B2
Settings: with caps1_human CADPS

Row | Variant | effect of a mutation on the interaction
4 | MADQRQRSLSTSGESLYHVLGLDKNATSDDIKKSYRKLALKYHPDKNPDNPEAADKFKEINNAHAILTDATKRNIYDKYGSLGLYVAEQFGEENVNTYFVLSSWWAKALFVFCGRLTCCYCCCCLCCCFNCCCGKCKPKAPEGEETEFYVSPEDLEAQLQSDEREATDTPIVIQPASATETTQLTADSHPSYHTDGFN [L115R] | with no effect

Variants of: B2
Settings: with cskp_human CASK

Row | Variant | effect of a mutation on the interaction
5 | MADQRQRSLSTSGESLYHVLGLDKNATSDDIKKSYRKLALKYHPDKNPDNPEAADKFKEINNAHAILTDATKRNIYDKYGSLGLYVAEQFGEENVNTYFVLSSWWAKALFVFCGRLTCCYCCCCLCCCFNCCCGKCKPKAPEGEETEFYVSPEDLEAQLQSDEREATDTPIVIQPASATETTQLTADSHPSYHTDGFN [L115R] | increasing interaction strength

Variants of: B2
Settings: with lipa1_human PPFIA1, Q13136
Chain of lipa1_human PPFIA1, Q13136 (Q13136 whole entry): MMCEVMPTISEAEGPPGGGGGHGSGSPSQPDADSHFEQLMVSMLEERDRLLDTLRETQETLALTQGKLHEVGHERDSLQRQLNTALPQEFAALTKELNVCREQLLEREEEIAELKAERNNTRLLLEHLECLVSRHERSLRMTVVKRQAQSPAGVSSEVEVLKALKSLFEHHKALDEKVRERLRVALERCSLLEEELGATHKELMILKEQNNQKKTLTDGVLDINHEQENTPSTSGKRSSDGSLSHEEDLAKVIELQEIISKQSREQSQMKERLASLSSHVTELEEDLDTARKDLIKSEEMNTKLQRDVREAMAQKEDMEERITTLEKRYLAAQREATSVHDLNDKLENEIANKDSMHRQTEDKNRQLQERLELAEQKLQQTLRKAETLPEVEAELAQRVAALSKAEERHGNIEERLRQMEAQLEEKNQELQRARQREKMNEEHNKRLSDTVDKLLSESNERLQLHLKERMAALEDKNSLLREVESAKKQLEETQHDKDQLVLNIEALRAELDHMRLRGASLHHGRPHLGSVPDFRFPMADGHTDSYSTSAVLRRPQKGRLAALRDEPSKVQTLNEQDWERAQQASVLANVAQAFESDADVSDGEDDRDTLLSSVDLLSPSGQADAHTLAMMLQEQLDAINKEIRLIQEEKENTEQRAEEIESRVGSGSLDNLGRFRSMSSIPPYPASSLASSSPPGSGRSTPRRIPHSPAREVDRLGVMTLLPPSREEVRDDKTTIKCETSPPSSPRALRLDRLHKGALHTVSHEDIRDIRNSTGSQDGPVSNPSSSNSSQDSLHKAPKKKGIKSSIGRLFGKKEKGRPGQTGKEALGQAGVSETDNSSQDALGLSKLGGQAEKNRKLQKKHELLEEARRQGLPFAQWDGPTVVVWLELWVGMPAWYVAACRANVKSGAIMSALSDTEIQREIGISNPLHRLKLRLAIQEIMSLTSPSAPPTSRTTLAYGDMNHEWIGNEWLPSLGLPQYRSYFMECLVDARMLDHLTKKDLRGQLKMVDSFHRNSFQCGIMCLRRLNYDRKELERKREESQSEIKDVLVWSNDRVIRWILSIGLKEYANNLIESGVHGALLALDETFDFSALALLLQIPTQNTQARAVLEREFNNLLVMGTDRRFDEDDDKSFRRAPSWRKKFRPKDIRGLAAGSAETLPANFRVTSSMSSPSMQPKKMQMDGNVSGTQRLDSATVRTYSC

Row | Variant | effect of a mutation on the interaction
6 | MADQRQRSLSTSGESLYHVLGLDKNATSDDIKKSYRKLALKYHPDKNPDNPEAADKFKEINNAHAILTDATKRNIYDKYGSLGLYVAEQFGEENVNTYFVLSSWWAKALFVFCGRLTCCYCCCCLCCCFNCCCGKCKPKAPEGEETEFYVSPEDLEAQLQSDEREATDTPIVIQPASATETTQLTADSHPSYHTDGFN [L115R] | with no effect

Variants of: B2
Settings: with lipa4_human PPFIA4, O75335
Chain of lipa4_human PPFIA4, O75335 (O75335 whole entry): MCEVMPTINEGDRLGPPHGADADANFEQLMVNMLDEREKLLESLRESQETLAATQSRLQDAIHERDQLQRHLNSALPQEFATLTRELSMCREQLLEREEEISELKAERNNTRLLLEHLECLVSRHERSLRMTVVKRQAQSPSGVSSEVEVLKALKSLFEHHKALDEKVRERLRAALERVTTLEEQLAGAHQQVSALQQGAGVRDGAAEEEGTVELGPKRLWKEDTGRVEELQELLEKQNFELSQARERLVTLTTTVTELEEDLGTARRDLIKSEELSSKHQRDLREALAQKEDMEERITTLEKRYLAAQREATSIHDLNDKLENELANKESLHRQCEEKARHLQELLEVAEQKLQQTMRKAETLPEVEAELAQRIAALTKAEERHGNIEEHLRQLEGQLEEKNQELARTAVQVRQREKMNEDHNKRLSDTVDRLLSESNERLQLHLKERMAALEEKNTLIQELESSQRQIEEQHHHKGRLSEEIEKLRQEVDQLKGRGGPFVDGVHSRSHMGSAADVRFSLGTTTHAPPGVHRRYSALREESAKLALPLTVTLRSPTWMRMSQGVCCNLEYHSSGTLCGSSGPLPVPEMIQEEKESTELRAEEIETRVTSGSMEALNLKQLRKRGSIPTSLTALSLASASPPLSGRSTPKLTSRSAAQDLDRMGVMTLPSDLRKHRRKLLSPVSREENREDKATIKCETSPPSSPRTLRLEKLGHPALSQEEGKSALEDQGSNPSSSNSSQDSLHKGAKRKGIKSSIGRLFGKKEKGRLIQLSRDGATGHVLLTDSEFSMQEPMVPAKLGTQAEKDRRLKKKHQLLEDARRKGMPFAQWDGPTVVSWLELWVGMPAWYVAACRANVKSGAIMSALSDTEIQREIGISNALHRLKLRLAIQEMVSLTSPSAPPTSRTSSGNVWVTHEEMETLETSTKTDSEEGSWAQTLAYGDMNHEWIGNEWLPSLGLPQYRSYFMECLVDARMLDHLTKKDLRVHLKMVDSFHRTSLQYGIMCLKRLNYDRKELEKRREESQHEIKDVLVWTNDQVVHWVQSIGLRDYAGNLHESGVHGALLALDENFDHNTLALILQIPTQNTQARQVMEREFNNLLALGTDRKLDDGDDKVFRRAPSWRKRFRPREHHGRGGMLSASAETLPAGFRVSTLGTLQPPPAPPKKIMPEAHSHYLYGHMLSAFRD

Row | Variant | effect of a mutation on the interaction
7 | MADQRQRSLSTSGESLYHVLGLDKNATSDDIKKSYRKLALKYHPDKNPDNPEAADKFKEINNAHAILTDATKRNIYDKYGSLGLYVAEQFGEENVNTYFVLSSWWAKALFVFCGRLTCCYCCCCLCCCFNCCCGKCKPKAPEGEETEFYVSPEDLEAQLQSDEREATDTPIVIQPASATETTQLTADSHPSYHTDGFN [L115R] | increasing interaction strength

Variants of: B2
Settings: with rabx5_human RABGEF1, Q9UJ41

Row | Variant | effect of a mutation on the interaction
8 | MADQRQRSLSTSGESLYHVLGLDKNATSDDIKKSYRKLALKYHPDKNPDNPEAADKFKEINNAHAILTDATKRNIYDKYGSLGLYVAEQFGEENVNTYFVLSSWWAKALFVFCGRLTCCYCCCCLCCCFNCCCGKCKPKAPEGEETEFYVSPEDLEAQLQSDEREATDTPIVIQPASATETTQLTADSHPSYHTDGFN [L115R] | decreasing interaction strength

Variants of: B2
Settings: with sh3g3_human SH3GL3, Q99963

Row | Variant | effect of a mutation on the interaction
9 | MADQRQRSLSTSGESLYHVLGLDKNATSDDIKKSYRKLALKYHPDKNPDNPEAADKFKEINNAHAILTDATKRNIYDKYGSLGLYVAEQFGEENVNTYFVLSSWWAKALFVFCGRLTCCYCCCCLCCCFNCCCGKCKPKAPEGEETEFYVSPEDLEAQLQSDEREATDTPIVIQPASATETTQLTADSHPSYHTDGFN [L115R] | with no effect

Variants of: B2
Settings: with snp29_human SNAP29, O95721
Chain of snp29_human SNAP29, O95721 (O95721 whole entry): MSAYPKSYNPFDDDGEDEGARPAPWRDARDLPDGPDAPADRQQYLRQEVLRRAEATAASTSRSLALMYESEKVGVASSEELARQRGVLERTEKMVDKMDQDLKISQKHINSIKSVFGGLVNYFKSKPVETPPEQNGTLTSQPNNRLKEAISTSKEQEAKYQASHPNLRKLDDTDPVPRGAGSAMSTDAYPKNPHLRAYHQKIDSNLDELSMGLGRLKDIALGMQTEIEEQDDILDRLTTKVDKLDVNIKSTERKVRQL

Row | Variant | effect of a mutation on the interaction
10 | MADQRQRSLSTSGESLYHVLGLDKNATSDDIKKSYRKLALKYHPDKNPDNPEAADKFKEINNAHAILTDATKRNIYDKYGSLGLYVAEQFGEENVNTYFVLSSWWAKALFVFCGRLTCCYCCCCLCCCFNCCCGKCKPKAPEGEETEFYVSPEDLEAQLQSDEREATDTPIVIQPASATETTQLTADSHPSYHTDGFN [L115R] | with no effect

Variants of: B2
Settings: with syua_human SNCA

Row | Variant | effect of a mutation on the interaction
11 | MADQRQRSLSTSGESLYHVLGLDKNATSDDIKKSYRKLALKYHPDKNPDNPEAADKFKEINNAHAILTDATKRNIYDKYGSLGLYVAEQFGEENVNTYFVLSSWWAKALFVFCGRLTCCYCCCCLCCCFNCCCGKCKPKAPEGEETEFYVSPEDLEAQLQSDEREATDTPIVIQPASATETTQLTADSHPSYHTDGFN [L115R] | with no effect

Variants of: B2
Settings: with zdh17_human ZDHHC17, Q8IUH5
Remark: another data set of the same source

Row | Variant | effect of a mutation on the interaction
12 | MADQRQRSLSTSGESLYHVLGLDKNATSDDIKKSYRKLALKYHPDKNPDNPEAADKFKEINNAHAILTDATKRNIYDKYGSLGLYVAEQFGEENVNTYFVLSSWWAKALFVFCGRLTCCYCCCCLCCCFNCCCGKCKPKAPEGEETEFYVSPEDLEAQLQSDEREATDTPIVIQPASATETTQLTADSHPSYHTDGFN [L115R] | decreasing interaction strength

Variants of: B2
Settings: with grm8_human GRM8, O00222

Row | Variant | effect of a mutation on the interaction
13 | MADQRQRSLSTSGESLYHVLGLDKNATSDDIKKSYRKLALKYHPDKNPDNPEAADKFKEINNAHAILTDATKRNIYDKYGSLGLYVAEQFGEENVNTYFVLSSWWAKALFVFCGRLTCCYCCCCLCCCFNCCCGKCKPKAPEGEETEFYVSPEDLEAQLQSDEREATDTPIVIQPASATETTQLTADSHPSYHTDGFN [L115R] | decreasing interaction strength

Variants of: B2
Settings: with nrx3b_human NRXN3, Q9HDB5
Chain of nrx3b_human NRXN3, Q9HDB5 (Q9HDB5 whole entry): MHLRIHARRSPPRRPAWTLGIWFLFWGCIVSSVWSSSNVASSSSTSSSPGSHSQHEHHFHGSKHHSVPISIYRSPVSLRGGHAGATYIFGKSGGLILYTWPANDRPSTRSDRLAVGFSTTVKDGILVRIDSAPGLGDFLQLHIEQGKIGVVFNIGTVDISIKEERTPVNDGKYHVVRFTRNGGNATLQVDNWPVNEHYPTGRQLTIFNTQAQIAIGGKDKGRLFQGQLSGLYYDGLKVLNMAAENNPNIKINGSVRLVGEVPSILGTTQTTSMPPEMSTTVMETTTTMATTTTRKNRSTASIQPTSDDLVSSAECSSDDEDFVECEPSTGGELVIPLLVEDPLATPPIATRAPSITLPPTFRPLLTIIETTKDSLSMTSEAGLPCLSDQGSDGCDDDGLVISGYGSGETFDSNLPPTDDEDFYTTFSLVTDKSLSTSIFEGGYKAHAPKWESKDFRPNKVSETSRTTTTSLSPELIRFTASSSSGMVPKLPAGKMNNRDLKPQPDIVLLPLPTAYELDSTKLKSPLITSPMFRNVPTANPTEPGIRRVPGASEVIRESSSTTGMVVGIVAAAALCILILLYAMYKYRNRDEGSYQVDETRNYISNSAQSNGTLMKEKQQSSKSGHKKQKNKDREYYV

Row | Variant | effect of a mutation on the interaction
14 | MADQRQRSLSTSGESLYHVLGLDKNATSDDIKKSYRKLALKYHPDKNPDNPEAADKFKEINNAHAILTDATKRNIYDKYGSLGLYVAEQFGEENVNTYFVLSSWWAKALFVFCGRLTCCYCCCCLCCCFNCCCGKCKPKAPEGEETEFYVSPEDLEAQLQSDEREATDTPIVIQPASATETTQLTADSHPSYHTDGFN [L115R] | decreasing interaction strength

Variants of: B2
Settings: with syph_human SYP

Row | Variant | effect of a mutation on the interaction
15 | MADQRQRSLSTSGESLYHVLGLDKNATSDDIKKSYRKLALKYHPDKNPDNPEAADKFKEINNAHAILTDATKRNIYDKYGSLGLYVAEQFGEENVNTYFVLSSWWAKALFVFCGRLTCCYCCCCLCCCFNCCCGKCKPKAPEGEETEFYVSPEDLEAQLQSDEREATDTPIVIQPASATETTQLTADSHPSYHTDGFN [L115R] | decreasing interaction strength

Variants of: B2
Settings: with syt1_human SYT1, P21579
Chain of syt1_human SYT1, P21579 (P21579 whole entry): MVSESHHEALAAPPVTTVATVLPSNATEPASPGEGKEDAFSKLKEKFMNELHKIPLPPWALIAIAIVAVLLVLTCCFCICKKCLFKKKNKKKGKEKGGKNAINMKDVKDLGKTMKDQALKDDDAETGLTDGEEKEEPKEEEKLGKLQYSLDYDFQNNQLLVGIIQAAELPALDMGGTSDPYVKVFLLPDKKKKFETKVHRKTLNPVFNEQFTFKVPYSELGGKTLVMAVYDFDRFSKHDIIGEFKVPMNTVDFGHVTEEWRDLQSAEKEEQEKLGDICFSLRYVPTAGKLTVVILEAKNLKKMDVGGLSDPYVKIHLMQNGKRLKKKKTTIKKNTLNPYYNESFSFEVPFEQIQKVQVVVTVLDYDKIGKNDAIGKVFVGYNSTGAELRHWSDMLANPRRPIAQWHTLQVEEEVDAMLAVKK

Row | Variant | effect of a mutation on the interaction
16 | MADQRQRSLSTSGESLYHVLGLDKNATSDDIKKSYRKLALKYHPDKNPDNPEAADKFKEINNAHAILTDATKRNIYDKYGSLGLYVAEQFGEENVNTYFVLSSWWAKALFVFCGRLTCCYCCCCLCCCFNCCCGKCKPKAPEGEETEFYVSPEDLEAQLQSDEREATDTPIVIQPASATETTQLTADSHPSYHTDGFN [L115R] | decreasing interaction strength

Variants of: B2
Settings: with vamp2_human VAMP2, P63027
Chain of vamp2_human VAMP2, P63027 (P63027 whole entry): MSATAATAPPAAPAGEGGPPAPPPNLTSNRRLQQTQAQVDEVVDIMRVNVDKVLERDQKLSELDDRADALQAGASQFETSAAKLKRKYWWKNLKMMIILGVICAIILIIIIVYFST

Row | Variant | effect of a mutation on the interaction
17 | MADQRQRSLSTSGESLYHVLGLDKNATSDDIKKSYRKLALKYHPDKNPDNPEAADKFKEINNAHAILTDATKRNIYDKYGSLGLYVAEQFGEENVNTYFVLSSWWAKALFVFCGRLTCCYCCCCLCCCFNCCCGKCKPKAPEGEETEFYVSPEDLEAQLQSDEREATDTPIVIQPASATETTQLTADSHPSYHTDGFN [L115R] | decreasing interaction strength

Variants of: B2
Settings: with vamp3_human VAMP3, Q15836
Chain of vamp3_human VAMP3, Q15836 (Q15836 whole entry): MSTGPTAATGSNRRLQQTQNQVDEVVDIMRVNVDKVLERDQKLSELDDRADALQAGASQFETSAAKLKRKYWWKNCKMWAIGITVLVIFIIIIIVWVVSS

Row | Variant | effect of a mutation on the interaction
18 | MADQRQRSLSTSGESLYHVLGLDKNATSDDIKKSYRKLALKYHPDKNPDNPEAADKFKEINNAHAILTDATKRNIYDKYGSLGLYVAEQFGEENVNTYFVLSSWWAKALFVFCGRLTCCYCCCCLCCCFNCCCGKCKPKAPEGEETEFYVSPEDLEAQLQSDEREATDTPIVIQPASATETTQLTADSHPSYHTDGFN [L115R] | decreasing interaction strength

Variants of: B2
Settings: with ap2a1_human AP2A1, O95782

Row | Variant | effect of a mutation on the interaction
19 | MADQRQRSLSTSGESLYHVLGLDKNATSDDIKKSYRKLALKYHPDKNPDNPEAADKFKEINNAHAILTDATKRNIYDKYGSLGLYVAEQFGEENVNTYFVLSSWWAKALFVFCGRLTCCYCCCCLCCCFNCCCGKCKPKAPEGEETEFYVSPEDLEAQLQSDEREATDTPIVIQPASATETTQLTADSHPSYHTDGFN [L115R] | with no effect

Variants of: B2
Settings: with ap2s1_human AP2S1, P53680
Chain of ap2s1_human AP2S1, P53680 (P53680 whole entry): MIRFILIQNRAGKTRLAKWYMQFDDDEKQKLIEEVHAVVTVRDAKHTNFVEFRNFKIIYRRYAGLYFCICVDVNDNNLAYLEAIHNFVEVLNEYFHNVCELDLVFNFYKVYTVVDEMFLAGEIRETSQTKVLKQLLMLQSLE

Row | Variant | effect of a mutation on the interaction
20 | MADQRQRSLSTSGESLYHVLGLDKNATSDDIKKSYRKLALKYHPDKNPDNPEAADKFKEINNAHAILTDATKRNIYDKYGSLGLYVAEQFGEENVNTYFVLSSWWAKALFVFCGRLTCCYCCCCLCCCFNCCCGKCKPKAPEGEETEFYVSPEDLEAQLQSDEREATDTPIVIQPASATETTQLTADSHPSYHTDGFN [L115R] | with no effect
